For test [1], the target named is T1, ROR1 naturally expressed on human tumor cell lines (A549, Jeko-1, SW620, PA-1) (human, UniProt Q01973 30-937).
T1 construct: whole, on cells; also called cells expressing ROR1
Put plainly: FACS on Jeko-1 cells naturally expressing ROR1.

Test [2] deals with T2, human/cynomolgus monkey ROR1 protein (Acro Biosystems, Cat. No.: RO1-H522y) (human/cynomolgus monkey, UniProt Q01973 30-403).
T2 construct: Bought SPR analyte
Put plainly: SPR (Biacore), antibody captured on anti-hIgG CM5 chip, ROR1 protein as analyte, 1:1 model. In general terms: Surface plasmon resonance follows binding to a sensor surface in real time, without labels.

The target of test [3] is T1, ROR1 naturally expressed on human tumor …. Put plainly: FACS on SW620 cells naturally expressing ROR1.
The target is the same in test [4]. Put plainly: FACS on A549 cells naturally expressing ROR1.
For test [5] the target is unchanged. Put plainly: FACS on Jeko-1 cells naturally expressing ROR1. The source holds these as a separate data set.
The target is the same in test [6]. Put plainly: FACS on SW620 cells naturally expressing ROR1. This is another data set of the same source.
The target in test [7] is T2, human/cynomolgus monkey ROR1 protein …. Put plainly: SPR (Biacore), antibody captured on anti-hIgG CM5 chip, ROR1 protein as analyte, method of Example 5.
Test [8] concerns the target T1, ROR1 naturally expressed on human tumor …. Description: FACS on PA-1 cells naturally expressing ROR1.
Test [9] concerns the target T3, human ROR1 on stably transfected cells (NCI-H1993-ROR1, MDA-MB-468-ROR1, NCI-H1975-ROR1, 293T-ROR1-NF-kB) (human, UniProt Q01973 30-937). Description: cell-based or functional assay.
Test [10] addresses T1, ROR1 naturally expressed on human tumor …. Put plainly: cell-based or functional assay.
Test [11] has the same target. Put plainly: FACS on PA-1 cells naturally expressing ROR1. The source holds these as a separate data set.
For test [12] the target is unchanged. Put plainly: FACS on Jeko-1 cells naturally expressing ROR1. This is another data set of the same source.
The target in test [13] is T3, human ROR1 on stably transfected cells …. Description: cell-based or functional assay. The source holds these as a separate data set.
The target in test [14] is T1, ROR1 naturally expressed on human tumor …. Description: FACS on SW620 cells naturally expressing ROR1. This is another data set of the same source.
The target is the same in test [15]. Put plainly: FACS on SW620 cells naturally expressing ROR1. The source holds these as a separate data set.
Test [16] shares this target. Put plainly: FACS on Jeko-1 cells naturally expressing ROR1. The source holds these as a separate data set.
Test [17] has the same target. Put plainly: FACS on PA-1 cells naturally expressing ROR1. The source holds these as a separate data set.

Results on 9 molecules are retold here after patent EP4772535A1 (Chia Tai Tianqing Pharmaceutical Group Co., Ltd., dated 2026).

Residue numbers refer to the chain shown, from its start.

T1 sequence (Q01973 30-937): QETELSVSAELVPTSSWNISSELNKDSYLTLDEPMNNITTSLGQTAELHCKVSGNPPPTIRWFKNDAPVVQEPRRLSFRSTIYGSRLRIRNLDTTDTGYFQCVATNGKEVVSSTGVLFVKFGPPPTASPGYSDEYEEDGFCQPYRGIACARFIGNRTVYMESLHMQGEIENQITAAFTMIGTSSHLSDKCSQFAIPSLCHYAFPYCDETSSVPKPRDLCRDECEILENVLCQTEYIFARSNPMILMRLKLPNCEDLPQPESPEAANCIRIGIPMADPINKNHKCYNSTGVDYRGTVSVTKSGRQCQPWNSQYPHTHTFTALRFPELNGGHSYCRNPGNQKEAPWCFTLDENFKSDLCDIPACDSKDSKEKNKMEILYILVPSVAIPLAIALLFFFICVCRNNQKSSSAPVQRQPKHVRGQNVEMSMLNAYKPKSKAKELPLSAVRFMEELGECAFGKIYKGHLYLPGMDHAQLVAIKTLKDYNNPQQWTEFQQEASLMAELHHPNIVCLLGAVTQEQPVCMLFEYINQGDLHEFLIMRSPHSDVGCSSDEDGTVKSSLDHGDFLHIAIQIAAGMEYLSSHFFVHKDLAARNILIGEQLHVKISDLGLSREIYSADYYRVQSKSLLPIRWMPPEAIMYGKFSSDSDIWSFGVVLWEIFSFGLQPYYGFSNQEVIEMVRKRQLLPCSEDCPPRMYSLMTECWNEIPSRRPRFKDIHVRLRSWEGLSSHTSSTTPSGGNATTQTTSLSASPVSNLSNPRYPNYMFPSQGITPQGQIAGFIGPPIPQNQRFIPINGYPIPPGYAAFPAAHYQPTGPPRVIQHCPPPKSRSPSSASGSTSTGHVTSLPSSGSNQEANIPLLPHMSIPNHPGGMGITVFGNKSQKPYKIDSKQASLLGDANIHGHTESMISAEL
T3 sequence (Q01973 30-937 limits assumed): as the sequence (Q01973 30-937) above
T2 sequence (Q01973 30-403 limits assumed): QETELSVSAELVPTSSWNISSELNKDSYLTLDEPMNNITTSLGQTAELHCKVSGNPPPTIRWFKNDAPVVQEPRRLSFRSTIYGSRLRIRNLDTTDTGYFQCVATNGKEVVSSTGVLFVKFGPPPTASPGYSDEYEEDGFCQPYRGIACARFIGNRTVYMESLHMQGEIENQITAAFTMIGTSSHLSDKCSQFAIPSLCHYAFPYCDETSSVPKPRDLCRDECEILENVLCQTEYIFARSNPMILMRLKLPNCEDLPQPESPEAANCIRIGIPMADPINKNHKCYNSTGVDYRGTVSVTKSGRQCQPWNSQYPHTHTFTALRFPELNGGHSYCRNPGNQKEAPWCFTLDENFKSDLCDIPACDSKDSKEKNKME

B1: ch135A2B10 (antibody, human IgG1, kappa, V domains shown)
VH: DVKLVESGGGLVTPEGSLKLSCAASGFAFSTYGMAWVRQTPEKRLEWVASIHKGGFSTYYPDNVKGRFTISRDNDKNTLYLQMSSLKSEDTAMYYCIRHDWDGAMDYWGQGTSVTVSS
VL: DIVLTQSPSSMYASLGERVTITCKASQDINSYLNWFQQKPGKSPKTLIYRANRLVDGVPSRFSGSGSGQDYSLTISSLEYEDLGIYYCLQFDEFPYTFGGGTKLEIKR
notes: also called chimeric antibody of m135A2B10
As for B1, in test [1], a half-maximal effect (EC50) was put at 0.037 nM and the “Top (MFI)” value turned out to be 71900 MFI. In addition, in test [2], the dissociation constant (Kd) (in general, a measure of binding affinity in units of concentration) was found to be 0.586 nM; the koff (as a rule, a measure of how fast the partners let go of each other) amounted to 0.000551 s⁻¹; the kon – broadly, the second-order rate constant of association – is 941000 M⁻¹ s⁻¹. Also, in test [3], the EC50 – broadly, the concentration needed to bring the measured effect to its halfway point – was found to be 0.06 nM and the “Top (MFI)” value came out at 29800 MFI. For the same molecule, in test [4], a half-maximal effect (EC50) was put at 0.094 nM and the “Top (MFI)” value came out at 87800 MFI.

B2: hz29H5D8-3.1 (antibody, human IgG1, kappa, V domains shown)
VH: QVQLVQSGAEVKKPGSSVKVSCKASGYTFTNYGISWVRQAPGQGLEWMGEIYPRSVNTYYAQKFQGRVTITADKSTSTAYMELSSLRSEDTAVYYCARHYYGSSLDYWGQGTLVTVSS
VL: DIQMTQSPSSLSASVGDRVTITCITSSDIEDDMNWYQQKPGKAPKLLISEGNSLRPGVPSRFSSSGYGTDFTFTISSLQPEDIATYYCLQSDNIFTFGQGTKVEIKR
notes: Humanized, human IgG1/kappa
B2: in [5], the EC50 was 0.014 nM and the “Top (MFI)” value was 87700 MFI. For the same molecule, in test [6], the EC50 was 0.011 nM and the “Top (MFI)” value came to 30700 MFI. Further, in [7], the Kd worked out at 0.112 nM, the koff turned out to be 0.000218 s⁻¹ and the kon stood at 1.95e+06 M⁻¹ s⁻¹. For the same molecule, in [8], the response was half-maximal at 0.092 nM (EC50) and the “Top (MFI)” value stood at 247000 MFI.

B3: hz29H5D8-2.1 (antibody, human IgG1, kappa, V domains shown)
VH: B2 VH
VL: B2 VL with S49Y
notes: Humanized, human IgG1/kappa
On to B3, for which, in test [5], the 50% effective concentration (EC50) was found to be 0.015 nM and the “Top (MFI)” value turned out to be 85000 MFI. In test [6], the EC50 is 0.015 nM and the “Top (MFI)” value turned out to be 28600 MFI. In addition, in test [7], the Kd is 0.589 nM, the koff was found to be 0.000925 s⁻¹ and the kon stood at 1.57e+06 M⁻¹ s⁻¹. In addition, in [8], the response was half-maximal at 0.126 nM (EC50) and the “Top (MFI)” value worked out at 239000 MFI.

B4: hz137G11D10-2.1 (antibody, human IgG1, kappa, V domains shown)
VH: QVQLQESGPGLVKPSQTLSLTCTVSGYSITSDYAWNWIRQHPGKGLEWIGYITYSASTSYNPSLKSRVTISRDTSKNQFSLKLSSVTAADTAVYYCARGAGTYYFDYWGQGTLVTVSS
VL: DIQMTQSPSSLSASVGDRVTITCITSTDIDEDMNWYQQKPGKAPKLLIYEDNSLRPGVPSRFSGSGYGTDFTLTISSLQPEDFATYYCLQTNNLPLTFGQGTKVEIKR
notes: Humanized, human IgG1/kappa
For the molecule B4, the “Internalization EC50 (nM), NCI-H1975-ROR1 cells, pH-dependent endocytosis reagent, FACS” value in test [9] worked out at 12.4 nM. Further, the “ADCC reporter gene assay EC50 (nM), PA-1 target cells, recombinant Jurkat effector cells” value in test [10] was determined as 0.04 nM. Further, in [11], the EC50 stood at 0.053 nM and the “Top (MFI)” value came to 227000 MFI. In [7], this molecule had a Kd of 0.289 nM, a koff of 0.000792 s⁻¹ and a kon of 2.74e+06 M⁻¹ s⁻¹. In addition, in test [12], it took 0.01 nM to reach a half-maximal effect (EC50) and the “Top (MFI)” value was 88000 MFI. Besides, in test [13], the “Internalization EC50 (nM), MDA-MB-468-ROR1 cells, pH-dependent endocytosis reagent, FACS” value is 1.44 nM and the “Internalization EC50 (nM), NCI-H1993-ROR1 cells, pH-dependent endocytosis reagent, FACS” value is 1.24 nM. Moreover, in [14], the response was half-maximal at 9 pM (EC50) and the “Top (MFI)” value turned out to be 29500 MFI.

B5: hz135A2B10-1.2 (antibody, human IgG1, kappa, V domains shown)
VH: QVQLVESGGGLVQPGGSLRLSCAASGFAFSTYGMAWVRQAPGKGLEWVASIHKGGFSTYYPDNVKGRFTISRDNDKNSLYLQMNSLRAEDTAVYYCIRHDWDGAMDYWGQGTLVTVSS
VL: DIQMTQSPSSLSASVGDRVTITCKASQDINSYLNWYQQKPGKAPKTLIYRANRLVDGVPSRFSGSGSGQDYTLTISSLQPEDFATYYCLQFDEFPYTFGQGTKVEIKR
notes: Humanized, human IgG1/kappa
With B5, in test [15], the response was half-maximal at 0.034 nM (EC50) and the “Top (MFI)” value worked out at 30400 MFI. In test [7], this molecule displayed a Kd of 0.569 nM, a koff of 0.000596 s⁻¹ and an on-rate constant (kon) of 1.05e+06 M⁻¹ s⁻¹. In addition, in test [16], the half-maximal effective concentration (EC50) worked out at 0.022 nM and the “Top (MFI)” value is 89700 MFI. In test [17], a half-maximal response (EC50) required 0.217 nM and the “Top (MFI)” value was found to be 238000 MFI.

B6: hz135A2B10-1.3 (antibody, human IgG1, kappa, V domains shown)
VH: B5 VH with G44R
VL: B5 VL
notes: Humanized, human IgG1/kappa
For the molecule B6, in [15], the EC50 is 0.047 nM and the “Top (MFI)” value stood at 29900 MFI. In test [7], this molecule displayed a Kd of 0.575 nM, a koff of 0.000567 s⁻¹ and a kon of 985000 M⁻¹ s⁻¹. For the same molecule, in test [16], the EC50 was determined as 0.024 nM and the “Top (MFI)” value came to 86700 MFI. Besides, in [17], a half-maximal effect (EC50) was put at 0.192 nM and the “Top (MFI)” value was found to be 249000 MFI.

B7: ch3G9B1 (antibody, human IgG1, kappa, V domains shown)
VH: QVQLQQSGTELARPGASVKLSCKASGYTFTSYGITWVKQRTGQGLEWIGEIYPRSGNTYFNEKFKGKATLTADKSSSTAYMELRSLTSEDSAVYFCARDRTGTGVDDYWGQGTTLTVSS
VL: DIVLTQSPASLSMAIGEKVTIRCITNTDIDDDMSWYQQKPGEPPNLLISEGNTLRPGVPSRFSSSGYGRDFVFTIENMLSEDVADYYCLQSNNLPYTFGGGTKLEIKR
notes: also called chimeric antibody of m3G9B1
With B7, in [1], the midpoint of the response, the EC50, lay at 0.01 nM and the “Top (MFI)” value worked out at 61100 MFI. In [2], the Kd was 27.1 nM, the koff was determined as 0.0639 s⁻¹ and the kon was determined as 2.36e+06 M⁻¹ s⁻¹. Besides, in [3], the EC50 is 0.048 nM and the “Top (MFI)” value was 20400 MFI. In addition, in test [4], the EC50 came out at 0.03 nM and the “Top (MFI)” value is 65200 MFI.

B8: ch137G11D10 (antibody, human IgG1, kappa, V domains shown)
VH: DVQLQESGPGLVKPSQSLSLTCTVTGYSITSDYAWNWIRQFPGNKLEWMGYITYSASTSYNPSLKSRISITRDTSKNQFFLQLNSVTTEDTATYYCARGAGTYYFDYWGQGSTLTVSS
VL: DIVLTQSPASLSVATGEKVTIRCITSTDIDEDMNWYQQKPGEPPKLLISEDNSLRPGVPSRFSSSGYGTDFVLTIENTLSEDVADYYCLQTNNLPLTFGAGTKLEIKR
notes: also called chimeric antibody of m137G11D10
Consider B8, for which, in test [1], the EC50 turned out to be 0.012 nM and the “Top (MFI)” value is 71100 MFI. Moreover, in test [2], the affinity, expressed as Kd, was 0.61 nM; the koff was 0.00315 s⁻¹; the kon came to 5.16e+06 M⁻¹ s⁻¹. For the same molecule, in [3], the EC50 was 0.01 nM and the “Top (MFI)” value stood at 27300 MFI. In addition, in test [4], the EC50 was 0.02 nM and the “Top (MFI)” value worked out at 82800 MFI.

B9: ch29H5D8 (antibody, human IgG1, kappa, V domains shown)
VH: EVQLQQSGAELARPGASVKLSCKASGYTFTNYGISWVKQRTGQGLEWIGEIYPRSVNTYYSAKFKGKATLTADKSSSTAYMELRSLTSEDSAVYFCARHYYGSSLDYWGQGTTLTVSS
VL: DIVLTQSPASLSVATGEKVTIRCITSSDIEDDMNWYQQKPGEPPKLLISEGNSLRPGVPSRFSSSGYGTDFVFTIENTLSEDVADYYCLQSDNIFTFGSGTKLEIKR
notes: also called chimeric antibody of m29H5D8
In the case of B9, in [1], a half-maximal response (EC50) required 0.011 nM and the “Top (MFI)” value was determined as 70400 MFI. In test [2], this molecule registered a Kd of 0.669 nM, a koff of 0.00248 s⁻¹ and a kon of 3.7e+06 M⁻¹ s⁻¹. Also, in test [3], the response was half-maximal at 0.01 nM (EC50) and the “Top (MFI)” value was determined as 27000 MFI. In test [4], the EC50 was 0.016 nM and the “Top (MFI)” value turned out to be 78500 MFI.
